The target in experiment [1] is rabbit anti-human C-peptide antiserum. Nature of the experiment: competitive radioimmunoassay against labelled C-peptide tracer; expected concentration 3.31 nM.
Experiment [2] addresses T1, human serum albumin (HSA), immobilised on Sepharose (human, UniProt P02768 25-609).
T1 construct: also called HSA-Sepharose; human-serum-albumin (HSA)-Sepharose
Nature of the experiment: affinity chromatography on HSA-Sepharose. How it is done: E. coli cells harbouring pTrpBB-C3 and pTrpBB-C7, and thus encoding the fusion proteins BB-C3 and BB-C7, respectively, were grown overnight at 37° C. in shake-flasks containing 10 ml Tryptic Soy Broth (Difco, USA) (30 g/l) supplemented with yeast extract (Difco) (5 g/l) and kanamycin monosulfate (50 mg/l). The overnight cultures were diluted 10-fold to 100 ml into baffled shake-flasks having the same type of media and grown at 37° C. Gene expression was induced at mid-log phase (A_{600 nm}≅1) by the addition of β-indole acrylic acid to 25 mg/l. Cells were harvested 20 hours after induction, by centrifugation at approximately 6000 g for 10 min. Cells were resuspended in 1/20 of the culture volume in TST (50 mM Tris-HCl pH 8.0. 200 mM NaCl, 0.05% Tween 20, 1 mM EDTA), lysed by sonication and centrifuged at approximately 40,000 g. The samples for the sonication were prepared by sedimenting the shake-flask culture by centrifugation, and thereafter resuspending the cells in 30 ml of cold TST buffer. The samples were stored on ice during a 2 minute pulsed sonication which was performed on a Sonics and Materials Inc. (Danbury, Conn., USA) Vibra Cell (500 W) using a 13 mm standard horn tip, a 70% duty cycle (20 kHz) and with the output control set to 6.5. […] Eluted fractions were monitored for protein content by absorbance measurement at 280 nm and relevant fractions were lyophilised.

T1 sequence (P02768 25-609 limits assumed): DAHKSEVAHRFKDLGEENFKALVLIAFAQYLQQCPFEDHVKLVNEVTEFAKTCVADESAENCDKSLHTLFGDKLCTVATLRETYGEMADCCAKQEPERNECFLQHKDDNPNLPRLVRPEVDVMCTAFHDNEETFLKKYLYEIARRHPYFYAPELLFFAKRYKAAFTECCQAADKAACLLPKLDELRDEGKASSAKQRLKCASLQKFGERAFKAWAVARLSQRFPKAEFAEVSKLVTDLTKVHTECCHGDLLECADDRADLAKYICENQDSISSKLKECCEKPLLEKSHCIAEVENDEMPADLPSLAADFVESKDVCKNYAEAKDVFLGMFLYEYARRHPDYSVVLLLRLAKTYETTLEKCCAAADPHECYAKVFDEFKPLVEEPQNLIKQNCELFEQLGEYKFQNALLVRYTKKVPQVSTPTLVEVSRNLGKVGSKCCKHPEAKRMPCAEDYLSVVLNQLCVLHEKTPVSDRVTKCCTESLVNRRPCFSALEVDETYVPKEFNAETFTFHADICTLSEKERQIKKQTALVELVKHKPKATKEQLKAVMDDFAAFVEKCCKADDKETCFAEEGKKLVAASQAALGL

EAEDLQVGQVELGGGPGAGSLQPLALEGSLQ [Insulin C-peptide (from cleavage of fusion protein BB-C7)]: in experiment [1], the Assayed concentration was found to be 2.34 nM and the Assayed concentration as percent of expected came out at 71%.

B1: BB-C7 fusion protein (other)
chain: MKAIFVLNAQHDEAVDANFDQFNKYGVSDYYKNLINNAKTVEGVKDLQAQVVESAKKARISEATDGLSDFLKSQTPAEDTVKSIELAEAKVLANRELDKYGVSDYHKNLINNAKTVEGVKDLQAQVVESAKKARISEATDGLSDFLKSQTPAEDTVKSIELAEAKVLANRELDKYGVSDYYKNLINNAKTVEGVKALIDEILAALPKTDTYKLILNGKTLKGETTTEAVDAATARSFNFPILENSSSVPASQAREAEDLQVGQVELGGGPGAGSLQPLALEGSLQRTASQAREAEDLQVGQVELGGGPGAGSLQPLALEGSLQRTASQAREAEDLQVGQVELGGGPGAGSLQPLALEGSLQRTASQAREAEDLQVGQVELGGGPGAGSLQPLALEGSLQRTASQAREAEDLQVGQVELGGGPGAGSLQPLALEGSLQRTASQAREAEDLQVGQVELGGGPGAGSLQPLALEGSLQRTASQAREAEDLQVGQVELGGGPGAGSLQPLALEGSLQRTASQAVD
notes: Expressed in E. coli from pTrpBB-C7; 54.2 kDa; also called peptide product comprising the fusion partner BB and seven copies of the insulin C-peptide
Regarding B1, the binding result in experiment [2] is “binds”.

B2: BB-C3 fusion protein (other)
chain: MKAIFVLNAQHDEAVDANFDQFNKYGVSDYYKNLINNAKTVEGVKDLQAQVVESAKKARISEATDGLSDFLKSQTPAEDTVKSIELAEAKVLANRELDKYGVSDYHKNLINNAKTVEGVKDLQAQVVESAKKARISEATDGLSDFLKSQTPAEDTVKSIELAEAKVLANRELDKYGVSDYYKNLINNAKTVEGVKALIDEILAALPKTDTYKLILNGKTLKGETTTEAVDAATARSFNFPILENSSSVPASQAREAEDLQVGQVELGGGPGAGSLQPLALEGSLQRTASQAREAEDLQVGQVELGGGPGAGSLQPLALEGSLQRTASQAREAEDLQVGQVELGGGPGAGSLQPLALEGSLQRTASQAVD
notes: Expressed in E. coli from pTrpBB-C3; 39.1 kDa
For the molecule B2, the binding result in experiment [2] is given as “binds”.
